Reference: patent US8404647B2, “Peptidylarginine deiminase (PAD) inhibitors” (Chiralix B.V., priority 2008, dated 2013)
Marks after values point to notes of the source that are not given here. Ends that are not written are not given here.

Columns and labels:
PAD4 = PAD4 (Homo sapiens, UniProt Q9UM07); experiment: Conversion (R to Cit) of substrate peptides by PAD4, mass spectrometry; assay type: biochemical; conditions: for Conversion: Table 7, PAD4, test system with 3 times less enzyme; for Conversion by PAD4 (%): Table 10; for Conversion (%): PAD4
Text: From previous studies it was known that D-S-Q-F-A-F-R-G-A-S-A-S-D (designated here as L1: SEQ ID NO: 11) is a substrate for PAD2 and PAD 4. To obtain better substrates, and subsequently powerful inhibitors, we intended to identify structural elements that improve substrate properties. A set of 152 individual analog peptides was generated, each differing from L1 by one amino acid at one of the positions −4 to −1 or 1 to 4.
In Table 3 the conversion of each analog (R to Cit conversion) is depicted. Values of the analogs relate to the conversion of the analog compared to the conversion of L1 under standard conditions (100 means a conversion equal to L1, 50 means conversion of 50% of that of L1, 175 means conversion of 175% of that of L1). Numbers above 100 thus relate to amino acid substitutions that improve substrate properties.
Peptides of table 4 are represented by the following sequences SEQ ID NO: 22-31 and 33-46. Control peptide are represented by the following sequences SEQ ID NO: 11 as control L1 and SEQ ID NO: 32 as control L2. Unfortunately, a substantial number of designed peptides were too polar to be analyzed on our LC-MS system (indicated in Table 4 as n.t., not trapped on the column). We therefore also generated and tested these peptides containing two additional N-terminal F-residues to increase hydrophobicity. In this form peptides were trapped on the column and could be analyzed (see Table 5).
Based on the above results we designed 20 peptides containing multiple amino acids that improve substrate properties (see Table 7). The indicated peptides were synthesized and tested in order to identify the best substrate from this group. Here we used a test system with less enzyme (3 times less) compared to the experiments described above.
(§1) Conversion of arginine into citrulline in the substrate peptides by PAD2 or PAD4 using mass spectrometry was performed as follows. A candidate substrate peptide was incubated with a PAD as indicated for several hours at 37° C. The reaction was quenched by the addition with acetic acid. A sample was analysed on a Qtof mass spectrometer (Micromass, UK) and the mass spectrum was compared with that of the same peptide not treated with PAD. Normally, 2^+- and 3^+-ions are detected. The conversion (ΔM=0.98 Da) was calculated on the 2^+- and 3^+-ions individually, and subsequently averaged taking into account the relative peak height of the 2^+- and 3^+-signals (see FIG. 5).

PAD2 = PAD2 (Homo sapiens, UniProt Q9Y2J8); experiment: Conversion (R to Cit) of substrate peptides by PAD2, mass spectrometry; assay type: biochemical; conditions: for Conversion by PAD2 (%): Table 10
Experimental: In a similar fashion as for PAD4 we identified improved peptide substrates for PAD2. Again L1 was used as a lead compound. The set of 152 peptides from Table 3 was used and testing was performed as described before.
as §1

[1] = Table 5, peptides with two additional N-terminal F-residues

Sequence of PAD4 (Q9UM07 whole entry): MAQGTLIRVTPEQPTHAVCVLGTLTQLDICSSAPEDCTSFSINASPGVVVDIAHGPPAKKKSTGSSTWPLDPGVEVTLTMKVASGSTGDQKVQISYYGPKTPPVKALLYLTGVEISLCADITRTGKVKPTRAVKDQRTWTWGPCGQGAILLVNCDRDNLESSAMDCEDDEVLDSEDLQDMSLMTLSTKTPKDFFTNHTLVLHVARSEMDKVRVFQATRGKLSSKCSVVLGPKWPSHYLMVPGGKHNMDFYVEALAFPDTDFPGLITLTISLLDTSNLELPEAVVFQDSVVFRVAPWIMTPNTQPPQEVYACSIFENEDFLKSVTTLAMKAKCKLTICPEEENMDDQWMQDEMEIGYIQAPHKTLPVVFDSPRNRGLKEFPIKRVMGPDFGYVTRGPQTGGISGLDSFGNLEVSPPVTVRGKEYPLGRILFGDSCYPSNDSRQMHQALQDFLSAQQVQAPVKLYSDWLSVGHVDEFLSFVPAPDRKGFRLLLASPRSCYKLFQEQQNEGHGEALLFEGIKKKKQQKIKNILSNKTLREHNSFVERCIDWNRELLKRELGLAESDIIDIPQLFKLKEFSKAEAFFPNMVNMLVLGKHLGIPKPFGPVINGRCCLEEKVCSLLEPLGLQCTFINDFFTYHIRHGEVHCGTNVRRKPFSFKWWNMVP
Sequence of PAD2 (Q9Y2J8 whole entry): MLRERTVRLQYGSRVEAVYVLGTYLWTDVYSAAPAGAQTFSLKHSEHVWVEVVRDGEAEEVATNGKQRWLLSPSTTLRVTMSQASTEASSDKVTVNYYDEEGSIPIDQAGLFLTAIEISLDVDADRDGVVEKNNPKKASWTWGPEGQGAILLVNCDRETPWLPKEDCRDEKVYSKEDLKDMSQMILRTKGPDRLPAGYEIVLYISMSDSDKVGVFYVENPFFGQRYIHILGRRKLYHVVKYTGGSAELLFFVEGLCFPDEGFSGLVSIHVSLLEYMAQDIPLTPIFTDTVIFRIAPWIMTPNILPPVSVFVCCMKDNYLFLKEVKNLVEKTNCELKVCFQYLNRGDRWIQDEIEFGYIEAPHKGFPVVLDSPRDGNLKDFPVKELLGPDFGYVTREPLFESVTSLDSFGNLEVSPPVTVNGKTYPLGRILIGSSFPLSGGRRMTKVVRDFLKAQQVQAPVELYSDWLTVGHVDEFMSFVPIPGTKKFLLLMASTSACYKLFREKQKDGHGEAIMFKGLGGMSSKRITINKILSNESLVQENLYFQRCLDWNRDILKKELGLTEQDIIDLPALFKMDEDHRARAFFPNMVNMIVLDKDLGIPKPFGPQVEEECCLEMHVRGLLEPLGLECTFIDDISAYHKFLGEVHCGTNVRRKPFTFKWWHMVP

| Conversion (PAD4) | Conversion by PAD4 (%) (PAD4) | Conversion by PAD2 (%) (PAD2) | Conversion (%) (PAD4; [1]) | Conversion (%) (PAD2; Table 9, PAD2) | Conversion (%) (PAD4; Table 4, 13-mer peptides) | conversion of L2 analogs by PAD4 (PAD4; relative to conversion of L2 (L2 = 100), single substitution at positions -4 to 4) [%] | Substance |
| --- | --- | --- | --- | --- | --- | --- | --- |
| 43 | 37% | 92% | – | – | – | – | D-S-K-K-H-F-R-D-K-L-Y-S-D (DSKKHFRDKLYSD; not fully specified (C-terminus); printed as D-S-K-K-H-F-R-D-K-L-Y-S-D) [Peptide 0708-22] |
| – | 76% | 94% | 100 | – | – | – | F-F-D-S-K-K-W-S-R-E-Y-F-F-S-D (FFDSKKWSREYFFSD) [Peptide 0612-32] |
| – | 45% | 98% | – | 98 | – | – | D-S-K-W-Y-H-R-N-K-F-W-S-D (DSKWYHRNKFWSD) [Peptide 0735-27] |
| 24 | 22% | 96% | – | – | – | – | D-S-K-K-H-F-R-G-K-L-Y-S-D (DSKKHFRGKLYSD; not fully specified (C-terminus); printed as D-S-K-K-H-F-R-G-K-L-Y-S-D) [Peptide 0708-32] |
| 45 (=L2) | 58(=L2) % | 84(=L2) % | – | – | 100% (=L2) | 100 | D-S-K-K-H-D-R-D-F-L-Y-S-D (DSKKHDRDFLYSD; not fully specified (C-terminus); printed as D-S-K-K-H-D-R-D-F-L-Y-S-D) [Peptide 0608-31] |
| – | 89% | 94 ** % | 100 | – | – | – | F-F-D-S-K-H-F-D-R-E-W-I-W-S-D (FFDSKHFDREWIWSD) [Peptide 0612-30] |
| – | 91% | 92 ** % | 100 | – | – | – | F-F-D-S-H-K-L-H-R-E-W-M-W-S-D (FFDSHKLHREWMWSD) [Peptide 0612-46] |
| – | 73% | 92% | – | – | – | – | D-S-H-K-W-H-R-D-F-F-Y-S-D (DSHKWHRDFFYSD; not fully specified (C-terminus); printed as D-S-H-K-W-H-R-D-F-F-Y-S-D) [Peptide 0608-35] |
| 60 | 71% | 90% | – | – | – | – | D-S-K-W-H-H-R-D-H-L-Y-S-D (DSKWHHRDHLYSD; not fully specified (C-terminus); printed as D-S-K-W-H-H-R-D-H-L-Y-S-D) [Peptide 0708-18] |
| – | 65% | 90% | – | – | – | – | D-S-K-K-L-H-R-D-H-M-E-S-D (DSKKLHRDHMESD; not fully specified (C-terminus); printed as D-S-K-K-L-H-R-D-H-M-E-S-D) [Peptide 0608-29] |
| 51 | 77% | 90% | – | – | – | – | D-S-K-K-F-D-R-D-H-L-Y-S-D (DSKKFDRDHLYSD; not fully specified (C-terminus); printed as D-S-K-K-F-D-R-D-H-L-Y-S-D) [Peptide 0708-15] |
| 64 | 81% | 93% | – | – | – | – | D-S-K-K-Y-D-R-G-F-L-W-S-D (DSKKYDRGFLWSD; not fully specified (C-terminus); printed as D-S-K-K-Y-D-R-G-F-L-W-S-D) [Peptide 0708-34] |
| 61 | 76% | 92% | – | – | – | – | D-S-K-K-Y-D-R-D-F-L-W-S-D (DSKKYDRDFLWSD; not fully specified (C-terminus); printed as D-S-K-K-Y-D-R-D-F-L-W-S-D) [Peptide 0708-29] |
| – | 54% | 95% | – | – | 90% | – | D-S-K-H-L-S-R-E-W-M-W-S-D (DSKHLSREWMWSD; not fully specified (C-terminus); printed as D-S-K-H-L-S-R-E-W-M-W-S-D) [Peptide 0608-24] |
| – | 63% | 90% | 97 | – | – | – | F-F-D-S-K-K-F-S-R-D-H-I-E-S-D (FFDSKKFSRDHIESD) [Peptide 0612-35] |
